The chains are these.
B1: U4/U6 small nuclear ribonucleoprotein Prp3 (Homo sapiens), O43395 (parent)
chain: MALSKRELDELKPWIEKTVKRVLGFSEPTVVTAALNCVGKGMDKKKAADHLKPFLDDSTLRFVDKLFEAVEEGRSSRHSKSSSDRSRKRELKEVFGDDSEISKESSGVKKRRIPRFEEVEEEPEVIPGPPSESPGMLTKLQIKQMMEAATRQIEERKKQLSFISPPTPQPKTPSSSQPERLPIGNTIQPSQAATFMNDAIEKARKAAELQARIQAQLALKPGLIGNANMVGLANLHAMGIAPPKVELKDQTKPTPLILDEQGRTVDATGKEIELTHRMPTLKANIRAVKREQFKQQLKEKPSEDMESNTFFDPRVSIAPSQRQRRTFKFHDKGKFEKIAQRLRTKAQLEKLQAEISQAARKTGIHTSTRLALIAPKKELKEGDIPEIEWWDSYIIPNGFDLTEENPKREDYFGITNLVEHPAQLNPPVDNDTPVTLGVYLTKKEQKKLRRQTRREAQKELQEKVRLGLMPPPEPKVRISNLMRVLGTEAVQDPTKVEAHVRAQMAKRQKAHEEANAARKLTAEQRKVKKIKKLKEDISQGVHISVYRVRNLSNPAKKFKIEANAGQLYLTGVVVLHKDVNVVVVEGGPKAQKKFKRLMLHRIKWDEQTSNTKGDDDEESDEEAVKKTNKCVLVWEGTAKDRSFGEMKFKQCPTENMAREHFKKHGAEHYWDLALSESVLESTD
B2: Zinc finger CCHC domain-containing protein 12 (Homo sapiens), Q6PEW1 (parent)
chain: MASIIARVGNSRRLNAPLPPWAHSMLRSLGRSLGPIMASMADRNMKLFSGRVVPAQGEETFENWLTQVNGVLPDWNMSEEEKLKRLMKTLRGPAREVMRVLQATNPNLSVADFLRAMKLVFGESESSVTAHGKFFNTLQAQGEKASLYVIRLEVQLQNAIQAGIIAEKDANRTRLQQLLLGGELSRDLRLRLKDFLRMYANEQERLPNFLELIRMVREEEDWDDAFIKRKRPKRSESMVERAVSPVAFQGSPPIVIGSADCNVIEIDDTLDDSDEDVILVESQDPPLPSWGAPPLRDRARPQDEVLVIDSPHNSRAQFPSTSGGSGYKNNGPGEMRRARKRKHTIRCSYCGEEGHSKETCDNESDKAQVFENLIITLQELTHTEMERSRVAPGEYNDFSEPL
B3: Inactive peptidyl-prolyl cis-trans isomerase FKBP6 (Homo sapiens), O75344 (parent)
chain: MGGSALNQGVLEGDDAPGQSLYERLSQRMLDISGDRGVLKDVIREGAGDLVAPDASVLVKYSGYLEHMDRPFDSNYFRKTPRLMKLGEDITLWGMELGLLSMRRGELARFLFKPNYAYGTLGCPPLIPPNTTVLFEIELLDFLDCAESDKFCALSAEQQDQFPLQKVLKVAATEREFGNYLFRQNRFYDAKVRYKRALLLLRRRSAPPEEQHLVEAAKLPVLLNLSFTYLKLDRPTIALCYGEQALIIDQKNAKALFRCGQACLLLTEYQKARDFLVRAQKEQPFNHDINNELKKLASCYRDYVDKEKEMWHRMFAPCGDGSTAGES
partner: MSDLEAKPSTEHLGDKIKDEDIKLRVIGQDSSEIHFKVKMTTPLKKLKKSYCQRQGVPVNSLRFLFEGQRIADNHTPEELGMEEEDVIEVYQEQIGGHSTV
B4: U4/U6 small nuclear ribonucleoprotein Prp31 (Homo sapiens), Q8WWY3 (parent)
chain: MSLADELLADLEEAAEEEEGGSYGEEEEEPAIEDVQEETQLDLSGDSVKTIAKLWDSKMFAEIMMKIEEYISKQAKASEVMGPVEAAPEYRVIVDANNLTVEIENELNIIHKFIRDKYSKRFPELESLVPNALDYIRTVKELGNSLDKCKNNENLQQILTNATIMVVSVTASTTQGQQLSEEELERLEEACDMALELNASKHRIYEYVESRMSFIAPNLSIIIGASTAAKIMGVAGGLTNLSKMPACNIMLLGAQRKTLSGFSSTSVLPHTGYIYHSDIVQSLPPDLRRKAARLVAAKCTLAARVDSFHESTEGKVGYELKDEIERKFDKWQEPPPVKQVKPLPAPLDGQRKKRGGRRYRKMKERLGLTEIRKQANRMSFGEIEEDAYQEDLGFSLGHLGKSGSGRVRQTQVNEATKARISKTLQRTLQKQSVVYGGKSTIRDRSSGTASSVAFTPLQGLEIVNPQAAEKKVAEANQKYFSSMAEFLKVKGEKSGLMST
partner: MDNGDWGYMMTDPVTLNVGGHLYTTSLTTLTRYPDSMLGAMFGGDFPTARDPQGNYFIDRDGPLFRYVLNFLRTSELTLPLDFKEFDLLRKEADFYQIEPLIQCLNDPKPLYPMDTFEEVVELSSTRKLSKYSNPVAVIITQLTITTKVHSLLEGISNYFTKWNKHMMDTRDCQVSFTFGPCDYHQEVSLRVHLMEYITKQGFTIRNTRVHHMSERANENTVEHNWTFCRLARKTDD
B5: U4/U6 small nuclear ribonucleoprotein Prp31 (Homo sapiens), Q8WWY3 (parent)
chain: B4 chain
partner: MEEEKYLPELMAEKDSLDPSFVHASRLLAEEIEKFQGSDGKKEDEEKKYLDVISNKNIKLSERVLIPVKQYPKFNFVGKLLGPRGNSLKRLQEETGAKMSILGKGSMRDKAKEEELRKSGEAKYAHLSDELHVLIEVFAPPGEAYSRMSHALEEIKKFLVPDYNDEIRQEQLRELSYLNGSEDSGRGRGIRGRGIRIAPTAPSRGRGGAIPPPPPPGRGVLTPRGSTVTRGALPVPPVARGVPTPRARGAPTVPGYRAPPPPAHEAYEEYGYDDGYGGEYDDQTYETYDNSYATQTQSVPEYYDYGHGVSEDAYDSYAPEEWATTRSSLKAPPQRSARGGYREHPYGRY
B6: Carbonic anhydrase-related protein (Homo sapiens), P35219 (parent)
chain: MADLSFIEDTVAFPEKEEDEEEEEEGVEWGYEEGVEWGLVFPDANGEYQSPINLNSREARYDPSLLDVRLSPNYVVCRDCEVTNDGHTIQVILKSKSVLSGGPLPQGHEFELYEVRFHWGRENQRGSEHTVNFKAFPMELHLIHWNSTLFGSIDEAVGKPHGIAIIALFVQIGKEHVGLKAVTEILQDIQYKGKSKTIPCFNPNTLLPDPLLRDYWVYEGSLTIPPCSEGVTWILFRYPLTISQLQIEEFRRLRTHVKGAELVEGCDGILGDNFRPTQPLSDRVIRAAFQ
partner: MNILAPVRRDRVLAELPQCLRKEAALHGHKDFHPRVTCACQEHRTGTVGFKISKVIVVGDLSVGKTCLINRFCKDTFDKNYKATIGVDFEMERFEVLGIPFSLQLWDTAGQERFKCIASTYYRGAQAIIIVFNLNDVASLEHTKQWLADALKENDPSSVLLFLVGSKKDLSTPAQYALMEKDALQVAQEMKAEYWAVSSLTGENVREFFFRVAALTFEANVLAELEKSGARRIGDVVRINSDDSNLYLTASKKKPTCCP
B7: ATP synthase mitochondrial F1 complex assembly factor 2 (Homo sapiens), Q8N5M1 (parent)
chain: MWRSCLRLRDGGRRLLNRPAGGPSASMSPGPTIPSPARAYAPPTERKRFYQNVSITQGEGGFEINLDHRKLKTPQAKLFTVPSEALAIAVATEWDSQQDTIKYYTMHLTTLCNTSLDNPTQRNKDQLIRAAVKFLDTDTICYRVEEPETLVELQRNEWDPIIEWAEKRYGVEISSSTSIMGPSIPAKTREVLVSHLASYNTWALQGIEFVAAQLKSMVLTLGLIDLRLTVEQAVLLSRLEEEYQIQKWGNIEWAHDYELQELRARTAAGTLFIHLCSESTTVKHKLLKE
partner: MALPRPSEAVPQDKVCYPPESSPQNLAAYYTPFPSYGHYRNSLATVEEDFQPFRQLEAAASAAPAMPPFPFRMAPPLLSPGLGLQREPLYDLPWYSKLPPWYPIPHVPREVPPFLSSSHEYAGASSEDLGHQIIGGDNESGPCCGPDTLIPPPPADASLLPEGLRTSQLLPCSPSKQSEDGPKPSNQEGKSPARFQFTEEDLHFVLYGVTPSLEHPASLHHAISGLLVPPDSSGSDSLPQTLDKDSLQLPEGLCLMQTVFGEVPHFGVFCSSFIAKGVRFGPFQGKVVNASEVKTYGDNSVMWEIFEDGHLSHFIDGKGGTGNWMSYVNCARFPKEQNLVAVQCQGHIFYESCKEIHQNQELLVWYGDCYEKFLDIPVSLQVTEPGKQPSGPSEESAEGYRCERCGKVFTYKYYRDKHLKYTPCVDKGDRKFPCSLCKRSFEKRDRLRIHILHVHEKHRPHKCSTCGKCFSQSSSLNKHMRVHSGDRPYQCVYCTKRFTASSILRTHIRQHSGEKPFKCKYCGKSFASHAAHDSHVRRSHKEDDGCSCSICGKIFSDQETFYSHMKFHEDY

The first assay covers variants of B1. As to conditions: with psmd3_human PSMD3, O43242.
Chain of psmd3_human PSMD3, O43242 (O43242 whole entry): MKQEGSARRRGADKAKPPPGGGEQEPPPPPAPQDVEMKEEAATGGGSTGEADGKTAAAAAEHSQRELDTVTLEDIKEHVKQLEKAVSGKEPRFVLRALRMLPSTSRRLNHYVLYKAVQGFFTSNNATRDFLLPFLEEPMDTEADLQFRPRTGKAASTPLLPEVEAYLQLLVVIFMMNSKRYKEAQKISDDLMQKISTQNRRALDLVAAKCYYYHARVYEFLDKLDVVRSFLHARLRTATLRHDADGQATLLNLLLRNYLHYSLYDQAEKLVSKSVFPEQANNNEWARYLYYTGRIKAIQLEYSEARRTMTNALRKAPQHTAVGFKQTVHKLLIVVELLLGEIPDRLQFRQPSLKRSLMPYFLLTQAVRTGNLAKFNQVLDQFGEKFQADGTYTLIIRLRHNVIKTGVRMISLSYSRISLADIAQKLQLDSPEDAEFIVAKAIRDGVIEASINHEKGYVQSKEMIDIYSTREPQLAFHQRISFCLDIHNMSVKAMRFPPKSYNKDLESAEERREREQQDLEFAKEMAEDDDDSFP
In the case of T494M, the “effect of a mutation on the interaction” value is “disrupting interaction strength”.

A further assay covers variants of B1. As to conditions: with fam9b_human FAM9B.
For the variant T494M, the “effect of a mutation on the interaction” value is listed as “disrupting interaction strength”.

Variants of B2 are the subject of the next assay. The conditions noted are these: with pnma1_human PNMA1, Q8ND90.
Chain of pnma1_human PNMA1, Q8ND90 (Q8ND90 whole entry): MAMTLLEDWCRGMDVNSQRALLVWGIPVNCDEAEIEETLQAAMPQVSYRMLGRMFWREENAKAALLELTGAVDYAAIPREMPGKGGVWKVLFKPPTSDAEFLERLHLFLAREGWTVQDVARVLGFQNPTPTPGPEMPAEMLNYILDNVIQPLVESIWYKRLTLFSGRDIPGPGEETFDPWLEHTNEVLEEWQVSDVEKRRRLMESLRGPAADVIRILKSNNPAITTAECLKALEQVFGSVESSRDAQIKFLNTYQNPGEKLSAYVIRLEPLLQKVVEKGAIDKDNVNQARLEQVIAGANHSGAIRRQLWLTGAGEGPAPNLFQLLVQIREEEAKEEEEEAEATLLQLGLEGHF
For R7C, the “effect of a mutation on the interaction” value is listed as “with no effect”.

As for T344I, the “effect of a mutation on the interaction” value is listed as “with no effect”.

In a further assay the parent is B2. As to conditions: with tfcp2_human TFCP2, Q12800.
Chain of tfcp2_human TFCP2, Q12800 (Q12800 whole entry): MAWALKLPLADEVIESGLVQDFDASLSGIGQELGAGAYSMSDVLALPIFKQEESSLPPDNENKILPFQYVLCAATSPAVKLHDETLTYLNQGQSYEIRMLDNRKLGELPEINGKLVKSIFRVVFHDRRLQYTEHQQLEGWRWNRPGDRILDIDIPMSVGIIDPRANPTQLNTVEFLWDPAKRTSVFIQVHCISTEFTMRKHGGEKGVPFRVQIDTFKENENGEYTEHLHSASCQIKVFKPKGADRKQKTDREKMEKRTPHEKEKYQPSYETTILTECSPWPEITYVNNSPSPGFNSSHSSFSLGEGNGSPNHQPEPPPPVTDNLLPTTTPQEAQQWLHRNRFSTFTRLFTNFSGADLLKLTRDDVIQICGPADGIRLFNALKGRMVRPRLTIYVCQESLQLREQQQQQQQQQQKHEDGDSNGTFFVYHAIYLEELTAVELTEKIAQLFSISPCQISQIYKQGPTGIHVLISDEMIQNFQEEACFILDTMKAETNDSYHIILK
For the variant R7C, the “effect of a mutation on the interaction” value is reported as “with no effect”.

With T344I, the “effect of a mutation on the interaction” value is “with no effect”.

The variants in another assay derive from B3. The conditions noted are these: with sumo5_human SUMO1P1, G2XKQ0.
Regarding F72L, the “effect of a mutation on the interaction” value is on record as “disrupting interaction strength”.

For the variant R202H, the “effect of a mutation on the interaction” value is “with no effect”.

Variants of B4 are the subject of the next assay. The conditions noted are these: with kctd6_human KCTD6, Q8NC69.
In the case of L107V, the “effect of a mutation on the interaction” value was “with no effect”.

The next assay covers variants of B5. As to conditions: with khdr2_human KHDRBS2, Q5VWX1.
Take L107V: the “effect of a mutation on the interaction” value was “with no effect”.

The variants in a further assay derive from B6. The conditions noted are these: with rab34_human RAB34, Q9BZG1.
Regarding S100P, the “effect of a mutation on the interaction” value is “disrupting interaction strength”.

The next assay covers variants of B7. The conditions noted are these: with prd14_human PRDM14, Q9GZV8.
Consider W94R, for which the “effect of a mutation on the interaction” value was “disrupting interaction strength”.

These data come from IntAct's records for PubMed 25910212.
